Reference: the supplement of paper PMC9170038

System: MS2 coat protein
Experiment: apparent KD of MS2 coat protein; designed switch direction (-1 OFF switch, 1 ON switch): 1; higher = weaker reporter binding
Method in brief: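 Transcription of designed RNA switches on Illumina chips was done by stalled E. coli RNA polymerase. SNAP-549-labelled MS2 coat protein was then titrated in doubling steps from 0.7 or 1.5 nM to 3 µM, with steps of 0.8–1.5 h at the lowest and 10–20 min at the highest concentration. The per-design median over clusters of curve-fitted normalised fluorescence is reported as apparent KD.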

[1] = Eterna round: R95, input ligand: FMN 200 uM
[2] = Eterna round: R95, input ligand: microRNA oligo, concentration not stated
[3] = Eterna round: R95, input ligand: none
[4] = input ligand: microRNA oligo, concentration not stated

| Sequence | apparent KD of MS2 coat protein [1] | apparent KD of MS2 coat protein [2] | apparent KD of MS2 coat protein [3] | apparent KD of MS2 coat protein (input ligand: FMN 200 uM) | apparent KD of MS2 coat protein [4] | apparent KD of MS2 coat protein (input ligand: none) |
| --- | --- | --- | --- | --- | --- | --- |
| AUAAGGCAAGCUUUUUUCUCGUAGUGUAAACAUGAGGAUCACCCAUGUGCUCGCCCUGGAUCUUUGGAUCGCAGAAA [Geedbigexe] (puzzle: Sensor for hsa-mir-208a) | 46.7 nM | 18.6 nM | 45.3 nM |  |  |  |
| UUGCGGGCUUGAGGAUAUUGAGUACAUAUGUUUAACAUGAGGAUCACCCAUGUGGGUUGCGGUAUCGAGAAGGUAACUUCCUAC [salish99_SSNG2_r04_808] (Eterna round: R96, puzzle: Same State NG 2) |  |  |  | 169 nM | 92.5 nM | 153 nM |
| UAUCAUUACACGAAGGAUAUCGAUAAUUGAACAUGAGGAUCACCCAUGUGAUAUAUUUUACAGUUCGAGAAGGUCGAGGGUGAAG [JR_SS002_Sub705] (Eterna round: R96, puzzle: Same State 2) |  |  |  |  | 28.5 nM |  |
| AACAAACGCGGAGGAUAUGGGCGAGGCGCGGAAGUCCACGCCAAAACAUGAGGAUCACCCAUGUCCCAGAAGGCCGCACAAAAU [Gererier] (Eterna round: R96, puzzle: Same State NG 2) |  |  |  | 16.3 nM | 40.8 nM | 49.1 nM |
| GGAGCCGGCCUAGGAUAUUUCAUAAAUUUACAUGAGGAUCACCCAUGUAGGCCAGAAGGCCUUGGGAAGAAGGAGGUCGGCUCC [Loop Effect - U27,U28,U29] (Eterna round: R96, puzzle: Same State NG 2) |  |  |  | 11.3 nM | 27.5 nM | 40.5 nM |
| UGGCUCAGACGAGGAUAUAUGCGAUCACAUGAGGAUCACCCAUGUCUCGAGCUUCGGCUCGAGGCAUAGAAGGCGUCUGAGCCA [SSNG2/4-A2] (Eterna round: R96, puzzle: Same State NG 2) |  |  |  | 15.8 nM | 28 nM | 32.5 nM |
| UAGAAUCUAUCUCAGGAUAUCAUGUCAAAGACAUGAGGAUCACCCAUGUACCAGGAAACUGGUUAUGAGAAGGGAGAUAGAUUCU [Mat - Same State 2 - Mod - D33] (puzzle: Same State 2) | 160 nM | 158 nM | 281 nM |  |  |  |
| UGAAUAGUUACAGGAUAUCAUGCGAAAAUUGCGUGAGAAGGGUGGGUGUUGUGCUCAAAGUGCUACAUGAGGAUCACCCAUGUU [SameState NG1 #40] (Eterna round: R96, puzzle: Same State NG 1) |  |  |  | 1720 nM | 99.3 nM | 497 nM |
| AAUUAAUUAAUUAAUAUACAUGAGGAUCACCCAUGUAAGAUCAAGGAUAUCAGCUCGUUUAGAGCUGAGAAGGUGAUCACAUGU [SSNG3/16-A3] (Eterna round: R96, puzzle: Same State NG 3) |  |  |  | 447 nM | 156 nM | 302 nM |
| AGUCCGGCCUGAGCUGGACUGAAGCAUGUACAUGAGGAUCACCCAUGUUCAUGUGCAGGCUUUUUGCUCGUCUUGUG [JL-shm-2.04 JL mod] (Eterna round: R96, puzzle: Sensor for hsa-mir-208a) |  |  |  | 115 nM | 12.6 nM | 103 nM |
| AGUCCAGCCUGAGCUGGACAAAAGCAUGUACAUGAGGAUCACCCAUGUCAUGUACAAGCUUUUUGCUCGUCUAAAAG [Mat - hsa-mir-208a - Mod of JL - D7] (puzzle: Sensor for hsa-mir-208a) | 272 nM | 17.6 nM | 406 nM |  |  |  |
| GGAGCCAAGGCAGGAUAUUCAUAUUAAUAACAUGAGGAUCACCCAUGUUGGGCCAGAAGGCCUUGGGAGAAGGGCCAUGGCUCG [Xeonanis - 13 mod17] (Eterna round: R96, puzzle: Same State NG 2) |  |  |  | 20.1 nM | 24.7 nM | 36.5 nM |
| ACUUGCUUUUUGCUCGUAUAUUGUCCAUUACAUGAGGAUCACCCAUGUGUGUAUUGUGUAUUGUUUUUGAUACGUGC [JR_SHM208A_Sub071] (puzzle: Sensor for hsa-mir-208a) | 243 nM | 24.4 nM | 302 nM |  |  |  |
| AGAGGAGGAGCAGGAUAUGCGAAGAAGAACGUGGCAGAAGGGUUCAUGCGAUGACAUGAGGAUCACCCAUGUACCGCGCGAGGA [AK SSNG1-V2-10] (Eterna round: R96, puzzle: Same State NG 1) |  |  |  | 64.4 nM | 33.9 nM | 62.6 nM |
| GCUUGCGACGCAGGAUAUGGGUGCCUGUACAUGAGGAUCACCCAUGUUAAGGAACGGAUUACGUCUCAGAAGGGCGUGGCAGGC [Ceerce Mod] (Eterna round: R96, puzzle: Same State NG 2) |  |  |  | 37.1 nM | 31.1 nM | 1250 nM |
| GCAGAACAUGAGGAUCACCCAUGUCUCUAAAGUCGAGGAUAUGGGCAGGUUAUAUCCGAACCAGAAGGCGAUCUGC [SS1 Teenbexe 13] (puzzle: Same State 1) |  | 108 nM |  |  |  |  |

| Sequence | apparent KD of MS2 coat protein [1] | apparent KD of MS2 coat protein [2] | apparent KD of MS2 coat protein [3] | apparent KD of MS2 coat protein (input ligand: FMN 200 uM) | apparent KD of MS2 coat protein [4] | apparent KD of MS2 coat protein (input ligand: none) |
| --- | --- | --- | --- | --- | --- | --- |
| AGUCCAGCGAAAGCUGGACAAGAGCAUGUACAUGAGGAUCACCCAUGUUCAUGUACAAGCUUUUUGCUCGUCUUAAA [JL mod - D95 - 2] (puzzle: Sensor for hsa-mir-208a) | 384 nM | 14.3 nM | 439 nM |  |  |  |
| GGGCCAGCUUGUGCUGGGCCUUCGCAUGCACAUGAGGAUCACCCAUGUCGUGUACAUGCUUGGUGCUCGUCUUUAAA [Photon Torp-12] (puzzle: Sensor for hsa-mir-208a) | 399 nM | 15.7 nM | 266 nM |  |  |  |
| GUGGUCAGACAUGAGGAUCACCCAUGUGGAAUAAAUAAGGAGAAGGAUAUGGAAUAUAGGAUAUACCAGAAGGUCUGGUUGGUG (Eterna round: R96, puzzle: Same State NG 3) |  |  |  |  | 55.8 nM |  |
| AACAAUCUAUCUGAGGAUAUCAUGAAAUAAACAUGAGGAUCACCCAUGUGCAGGAAAACUGCAUAUGAGAAGGCAGAUAUAUUGA [salish99_ss2_r3_055] (puzzle: Same State 2) | 104 nM | 1160 nM | 4700 nM |  |  |  |
| AAUUUAAUACAUGAGGAUCACCCAUGUAAUACUAGUAAGAUCUAGGAUAUCAGCUCGAAUAGAGCUGAGAAGGAGAUCACAUGU [SSNG3/19-C1] (Eterna round: R96, puzzle: Same State NG 3) |  |  |  | 24.2 nM | 63.9 nM | 82 nM |
| GCGACGGCGAAAGGAUAUCAAAAUCAACAGUGUUGAGAAGGUUCUCCGAGGGUCGCACAUGAGGAUCACCCAUGUCGCGAAUCU [Eternabot solution 35] (Eterna round: R96, puzzle: Same State NG 1) |  |  |  |  | 9.02 nM |  |
| AAACAUGAGCGAGGAUAUGCGGACGAUUACGCUGUAGAAGGCGCAUGUAAAACAACAUGAGGAUCACCCAUGUCAUGUACAUGU (Eterna round: R96, puzzle: Same State NG 1) |  |  |  | 308 nM | 146 nM | 265 nM |
| CGUCCAGCCUGAGCUGGACAAAAGCAUGUACAUGAGGAUCACCCAUGUUCAUGUACAAGCUUUUUGCUCGUCUUAUA [salish99_208a_r3_046] (puzzle: Sensor for hsa-mir-208a) | 585 nM | 13.9 nM | 479 nM |  |  |  |
| GGAUGAUAGACAGGAUAUUGAAUGUAAUUAGGACAAGAAGGGUCAAUGAUUUAAACGACCAGUUACAUGAGGAUCACCCAUGUU [JR_SSNG1_Sub025] (Eterna round: R96, puzzle: Same State NG 1) |  |  |  | 44.9 nM | 38.1 nM | 49.1 nM |
| GCGAAGAGGUAAGGAUAUUCAUGGCGUAGACAUGAGGAUCACCCAUGUAGGAGACGAAUUAGAAGGGAGAAGGUACCAGGACGC [AK SSNG2-V2-17] (Eterna round: R96, puzzle: Same State NG 2) |  |  |  | 60.9 nM | 101 nM | 187 nM |
| GCCCGUAGCCACAUGAGGAUCACCCAUGUGCAGUUGUGAUCCGAGGAUAUUGCUAUUUGAGAUAGUAAGAAGGUGGACCGCGGU [Eternabot solution 31] (Eterna round: R96, puzzle: Same State NG 3) |  |  |  | 109 nM | 84.4 nM | 143 nM |
| CGGGACAUGAGGAUCACCCAUGUGCCGAAAGGCACAAGAACGCAGGAUAUAGGGCAAAGACAGCCCUAGAAGGGUGACCUUGUG [Tiesralabe] (Eterna round: R96, puzzle: Same State NG 3) |  |  |  | 197 nM | 21.3 nM | 117 nM |
| GGGAGAGGCGCAGGAUAUGGUGAGGAUCACCCACUAGAAGGGUGCACAUGAGAAUCGGACAUGAGGAUCACCCAUGUCCGGCGC (Eterna round: R96, puzzle: Same State NG 1) |  |  |  | 375 nM | 143 nM | 445 nM |
| CUGUACCAUGGAGGAUAUGGGCUGAGACCAGGACAACCCUGGUCAACAUGAGGAUCACCCAUGUCCCAGAAGGCCACGGUGCUA [Anraores] (Eterna round: R96, puzzle: Same State NG 2) |  |  |  | 16 nM | 103 nM | 132 nM |
| AGCCGAGACUGAGGAUAUAGAAAUCUACAUGAGGAUCACCCAUGUAGCAACACGUGGUAGUGAUUCUAGAAGGCGGCUCGGCGC [Omei SS(NG)2 Cv5] (Eterna round: R96, puzzle: Same State NG 2) |  |  |  | 13.4 nM | 41.1 nM | 40.6 nM |
